By Km is commonly meant the concentration of substrate that gives half-maximal velocity. A word on the stoichiometry N: it is a count of units in the complex or per binding partner.

Where two headings read alike, the source gives them in different places.

The text below walks through data of paper PMC10214136 (Proceedings of the National Academy of Sciences of the …, 2023).

The target of data set [1] is FtsEX complex (Pseudomonas aeruginosa), wild type, in peptidiscs (Pseudomonas aeruginosa). Description: cryo-EM structure.
Substrate in the data set “purified protein”: Nc1ncnc2c1ncn2[C@@H]1O[C@H](COP(=O)(O)OP(=O)(O)OP(=O)(O)O)[C@@H](O)[C@H]1O
Description: purified protein. Conditions: ATP/MgCl2, pH 7.5, 37 °C, FtsEX in peptidiscs with EnvC.

Data set [2] concerns the molecule itself. Description: cryo-EM structure.
Data set [3] concerns the molecule itself. Description: cryo-EM structure. This is another data set of the same source.
In data set [4] the target is T1, FtsE (Pseudomonas aeruginosa), wild type (Pseudomonas aeruginosa, UniProt A0A069QBX1 1-223).
T1 sequence: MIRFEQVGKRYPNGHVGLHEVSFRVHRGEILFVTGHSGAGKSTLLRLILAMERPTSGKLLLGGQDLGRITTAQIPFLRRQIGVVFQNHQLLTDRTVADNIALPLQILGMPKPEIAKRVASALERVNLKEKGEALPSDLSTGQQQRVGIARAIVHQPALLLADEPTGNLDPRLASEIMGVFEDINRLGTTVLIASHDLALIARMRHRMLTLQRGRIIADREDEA
Description: co-purification.

Data set [5] has as its target FtsE^E163QX–EnvC complex (Pseudomonas aeruginosa) (Pseudomonas aeruginosa). Description: cryo-EM structure.

Regarding “EnvC (Pseudomonas aeruginosa), envC^Δ19 construct, wild type (natural protein)”, the stoichiometry N (EnvC per FtsE2-FtsX2 complex) in data set [1] came out at 1.

B1: FtsEX/EnvC (FtsEX–EnvC complex) (Pseudomonas aeruginosa PAO1) (protein)
chain: MIRFEQVGKRYPNGHVGLHEVSFRVHRGEILFVTGHSGAGKSTLLRLILAMERPTSGKLLLGGQDLGRITTAQIPFLRRQIGVVFQNHQLLTDRTVADNIALPLQILGMPKPEIAKRVASALERVNLKEKGEALPSDLSTGQQQRVGIARAIVHQPALLLADEPTGNLDPRLASEIMGVFEDINRLGTTVLIASHDLALIARMRHRMLTLQRGRIIADREDEA
B1: in the data set “purified protein”, the Km stood at 230 µM.

B2: FtsE^E163Q (Pseudomonas aeruginosa) (natural protein)
chain: MIRFEQVGKRYPNGHVGLHEVSFRVHRGEILFVTGHSGAGKSTLLRLILAMERPTSGKLLLGGQDLGRITTAQIPFLRRQIGVVFQNHQLLTDRTVADNIALPLQILGMPKPEIAKRVASALERVNLKEKGEALPSDLSTGQQQRVGIARAIVHQPALLLADQPTGNLDPRLASEIMGVFEDINRLGTTVLIASHDLALIARMRHRMLTLQRGRIIADREDEA
Turning to B2, the “stoichiometry N” value in “cryo-EM structure [2]” stood at 2.

B3: FtsX (Pseudomonas aeruginosa) (natural protein)
chain: MSANDLPRGPEEGAPERKTREKPSQEQTDWSGSFSAYLESHRASLVDSLRRLFGHPFGSFFTCLVMGITLSLPMGLSLLLNNVERLGGSWQRAAQISLFLDLKTSENQGQDLREQIERLPDVIEAQLISREQALSELQEQSGLGEALKELPENPLPPVISVTPKQIDRAGLEALRQQLAELPHVQQAQLDLVWVERLSAILKLGERFVFGLTILLVLTLLLVVGNTIRLHIENRRNEIEVIKLVGGTDGYVRRPFLYMGALYGLGAGILSWALLAYSLNWLNGSVVNLSGLYGSDFGLQGVPLDDGLSLTVGAVLLGWVGAWLAVARHLRELAPR
For the molecule B3, the “stoichiometry N” value in the data set “cryo-EM structure [3]” is 2; in data set [4], 1 FtsE:FtsX molar ratio.

B4: AmiB (Pseudomonas aeruginosa), amiB^Δ29 construct (enzyme)
chain: SLLQAHLSHRSALRSRFRFDPAAVMDCLRAEVLGQDPALQAVEDMLKVVRADIADPRRPLFSALFLGPTGVGKTEIVRALARALHGDAEGFCRVDMNTLSQEHYAAALTGAPPGYVGAKEGTTLLEQDKLDGSPGRPGIVLFDELEKASPEVVHALLNVLDNGLLRVASGERTYHFRNTLVFMTSNLCAHEIQRYDERRQRLPWRLLPVGGERRRRDIDGMVRARLLKTFSPEFVNRLDSVVTFNWIERDVVARLVELEVQRLNRRLEKHRCRLEATPEVLAKIARAGFDRQFGARALRRSVRHHLEVPLAEHLLDHHQPGDGNCTTYLASLEHERVRFVRR
With B4, in data set [5], the stoichiometry N (AmiB per FtsE2-FtsX2-EnvC complex) is 1.
